Source: US20250163186A1 (PHYLAXIS BIOSCIENCE, published 2025)
Substitutions are numbered along the chain they refer to.

B1: Anti-IgE sdAb B10 (parental B10 VHH, dimeric VHH-hIgG1-Fc xELL fusion) (Fc fusion)
chain: EVQLVQSGGELVQAGGSLRLSCVASGLTFSSYNMGWLRQAPGKEREFVGMSGSSSTSTYYADSVKGRFTISRDNSKNTVYLQMNSLKPEDTAVYYCAARRMLSTYWSDRSWDFWGQGTQVTVKPDKTHTCPPCPAPGGPSVFLFPPKPKDTLMISRTPEVTCVVVDVSHEDPEVKFNWYVDGVEVHNAKTKPREEQYNSTYRVVSVLTVLHQDWLNGKEYKCKVSNKALPAPIEKTISKAKGQPREPQVYTLPPSRDELTKNQVSLTCLVKGFYPSDIAVEWESNGQPENNYKTTPPVLDSDGSFFLYSKLTVDKSRWQQGNVFSCSVMHEALHNHYTQKSLSLSPGK
B2: B10-NNT (Fc fusion)
VHH-Fc: EVQLVQSGGELVQAGGSLRLSCVASGLTFSSYNMGWLRQAPGKEREFVGMSGSSSTSTYYADSVKGRFTISRDNSKNTVYLQMNSLKPEDTAVYYCAARRMLSTYWSDRSWDFWGQGTQVTVKPGGPSVFLFPPKPKDTLMISRTPEVTCVVVDVSHEDPEVKFNWYVDGVEVHNAKTKPREEQYNSTYRVVSVLTVLHQDWLNGKEYKCKVSNKALPAPIEKTISKAKGQPREPQVYTLPPSRDELTKNQVNLTCLVKGFYPSDIAVEWESNGQPENNYKTTPPVLDSDGSFFLNSTLTVDKSRWQQGNVFSCSVMHEALHNHYTQKSLSLSPGK
notes: monomeric; also called parental B10 monomeric VHH-hIgG1-Fc fusion (Fc NNT)
B3: hzB10v21-NNT (Fc fusion)
VHH-Fc: B2 VHH-Fc with V5L, Q6E, E10G, L11E, A14P, M50L, N84S, M101L, K123E
notes: monomeric
B4: hzB10v22-NNT (Fc fusion)
VHH-Fc: B2 VHH-Fc with V5L, Q6E, E10G, L11E, A14P, M50L, K87R, M101L, K123E
notes: monomeric
B5: hzB10v23-NNT (Fc fusion)
VHH-Fc: B2 VHH-Fc with V5L, Q6E, E10G, L11E, A14P, M50L, P88A, M101L, K123E
notes: monomeric
B6: hzB10v24-NNT (Fc fusion)
VHH-Fc: B2 VHH-Fc with V5L, Q6E, E10G, L11E, A14P, L37V, M50L, M101L, K123E
notes: monomeric
B7: hzB10v25-NNT (Fc fusion)
VHH-Fc: B2 VHH-Fc with V5L, Q6E, E10G, L11E, A14P, G49S, M50L, M101L, K123E
notes: monomeric
B8: hzB10v26-NNT (Fc fusion)
VHH-Fc: B2 VHH-Fc with V5L, Q6E, E10G, L11E, A14P
notes: monomeric
B9: hzB10v8-NNT (Fc fusion)
VHH-Fc: B2 VHH-Fc with M50I
notes: monomeric
B10: hzB10v9-NNT (Fc fusion)
VHH-Fc: B2 VHH-Fc with M50V
notes: monomeric
B11: hzB10v10-NNT (Fc fusion)
VHH-Fc: B2 VHH-Fc with M101L, V122A
notes: monomeric
B12: hzB10v11-NNT (Fc fusion)
VHH-Fc: B2 VHH-Fc with M101I
notes: monomeric
B13: hzB10v12-NNT (Fc fusion)
VHH-Fc: B2 VHH-Fc with M101V
notes: monomeric
B14: hzB10v13-NNT (Fc fusion)
VHH-Fc: B2 VHH-Fc with D62E, S75A, V122A
notes: monomeric
B15: hzB10v30-NNT (Fc fusion)
VHH-Fc: EVQLLESGGGEVQPGGSLRLSCVASGLTFSSYNMGWLRQAPGKEREFVGLSGSSSTSTYYAESVKGRFTISRDNSKNTVYLQMTSLRAEDTAVYYCAARRLLSTYWSDRSWDFWGQGTQVTVEPGGPSVFLFPPKPKDTLMISRTPEVTCVVVDVSHEDPEVKFNWYVDGVEVHNAKTKPREEQYNSTYRVVSVLTVLHQDWLNGKEYKCKVSNKALPAPIEKTISKAKGQPREPQVYTLPPSRDELTKNQVNLTCLVKGFYPSDIAVEWESNGQPENNYKTTPPVLDSDGSFFLNSTLTVDKSRWQQGNVFSCSVMHEALHNHYTQKSLSLSPGK
notes: monomeric
B16: hzB10v33-NNT (Fc fusion)
VHH-Fc: B15 VHH-Fc with G49S, T84N
notes: monomeric
B17: hzB10v34-NNT (Fc fusion)
VHH-Fc: B15 VHH-Fc with L37V, G49S, T84N
notes: monomeric
B18: hzB10v37-NNT (Fc fusion)
VHH-Fc: B15 VHH-Fc with R87K, Q119L
notes: monomeric
B19: hzB10v38-NNT (Fc fusion)
VHH-Fc: B15 VHH-Fc with A88P, Q119L
notes: monomeric
B20: hzB10v39-NNT (Fc fusion)
VHH-Fc: B15 VHH-Fc with Q119L
notes: monomeric
B21: hzB10v40 monomeric VHH-hIgG1-Fc fusion (Fc NNT) (Fc fusion)
chain: B15 VHH-Fc with S75A, Q119L
notes: Humanized variants were tested as monomeric fusions with the non-dimerizing Fc NNT
B22: hzB10v41-NNT (Fc fusion)
VHH-Fc: B15 VHH-Fc with N74Q, Q119L
notes: monomeric
B23: hzB10v42-NNT (Fc fusion)
VHH-Fc: B15 VHH-Fc with N74S, Q119L
notes: monomeric
B24: hzB10v43-NNT (Fc fusion)
VHH-Fc: B15 VHH-Fc with N74T, Q119L
notes: monomeric
B25: hzB10v44-NNT (Fc fusion)
VHH-Fc: B15 VHH-Fc with S75T, Q119L
notes: monomeric

Target: T1, CH2-4 constant domains of human IgE linked to a transmembrane protein, on 293 cells (human, UniProt P01854-1 104-428)
T1 construct: domain: CH2-4 constant domains; also called human IgE-expressing 293 cells
Test: flow cytometry, 293 cells expressing human IgE CH2-4
Protocol: (§1) First, 25 μg of DNA was added to Opti-MEM Reduced Serum Medium (Gibco) mixed with 75 μL of 40 kDa Polyethylenimine (PEI) for a final concentration of 1 μg DNA and 2.5 μg PEI per mL of culture volume. The plasmid DNA was allowed to pre-complex with PEI for 15 minutes before transferring the mixture to 25 mL of 293 cells in a shake flask at a density of 2×10⁶ cells/mL. […] Next, 50 μL of cells were transferred to wells of a round-bottom 96-well assay plate for a total of 50,000 293 cells per well. In a separate 96-well plate, monomeric VHH-hIgG1-Fc fusion proteins were titrated 1:5 in a 8-point dilution series starting at 1 μM in FACS Buffer with the 8th point containing no antibody. 50 μL from each antibody dilution was added to wells containing 50 μL of FACS Buffer with transfected 293 cells which produced a 2-fold dilution of the antibody concentrations from the dilution series resulting in a 500 nM final, starting concentration of the test article titration. The test articles and 293 cells were incubated together at 4° C. for 30 minutes. Next, the 96-well plates were centrifuged at 400×g for 5 minutes and the FACS buffer containing unbound antibody was decanted. Cells were washed 1× with 150 μL 4° C. FACS Buffer. […] The cells were incubated with the fluorophore conjugated detection antibody at 4° C. for 20 minutes. 293 cells were then centrifuged and washed once as described above. Cell pellets were resuspended in 30 μL FACS Buffer and analyzed on an iQue Screener Plus flow cytometer (Sartorius, IntelliCyt) with a 1 second sip time and 1 second void time. Mean fluorescent intensity was calculated using iQue onboard software gating on GFP+ or citrine+ cells.

T1 sequence (P01854 other isoform, or with tags, fused parts or gaps): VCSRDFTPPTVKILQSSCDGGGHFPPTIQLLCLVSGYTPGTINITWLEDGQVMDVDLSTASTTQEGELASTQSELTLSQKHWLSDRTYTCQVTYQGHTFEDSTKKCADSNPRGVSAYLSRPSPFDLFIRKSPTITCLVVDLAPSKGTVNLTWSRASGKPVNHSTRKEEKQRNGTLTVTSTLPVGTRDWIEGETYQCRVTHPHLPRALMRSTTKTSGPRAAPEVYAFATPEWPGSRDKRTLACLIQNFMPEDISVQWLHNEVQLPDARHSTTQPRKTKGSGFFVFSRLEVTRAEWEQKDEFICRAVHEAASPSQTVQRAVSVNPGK

Row | Binder | Kd [nM] | Bmax [MFI]
1 | B1 | 0.893 | –
2 | B2 | 1.82 | 1.36e+06

Target: T1, CH2-4 constant domains of human IgE …
Test: as above
Remark: another data set of the same source
Protocol: as §1

Row | Binder | Kd [nM] | Bmax [MFI]
3 | B2 | 1.82 | –
4 | B3 | 6.4 | 1.72e+06
5 | B4 | 2.39 | 2.08e+06
6 | B5 | 1.05 | 1.96e+06
7 | B6 | 2.52 | 1.92e+06
8 | B7 | 2.8 | 2.01e+06
9 | B8 | 1.43 | –

Target: T1, CH2-4 constant domains of human IgE …
Test: as above
Remark: another data set of the same source
Protocol: as §1

Row | Binder | Bmax [MFI] | Kd [nM]
10 | B1 | 2.25e+06 | 0.893
11 | B9 | 2.75e+06 | 2.74
12 | B10 | 2.83e+06 | 2.82
13 | B11 | 2.76e+06 | 1.19
14 | B12 | 3.41e+06 | 15.6
15 | B13 | 2.72e+06 | 2.37
16 | B14 | 2.82e+06 | 3.49

Target: T1, CH2-4 constant domains of human IgE …
Test: as above
Remark: another data set of the same source
Protocol: as §1

Row | Binder | Bmax [MFI] | Kd [nM]
17 | B2 | 866000 | 0.461
18 | B15 | 725000 | 1.63
19 | B16 | 617000 | 1.94
20 | B17 | 375000 | 0.55

Target: T1, CH2-4 constant domains of human IgE …
Test: as above
Remark: another data set of the same source
Protocol: as §1

Row | Binder | Bmax [MFI] | Kd [nM]
21 | B2 | 2.04e+06 | 0.872
22 | B15 | – | 1.69
23 | B18 | 1.9e+06 | 1.51
24 | B19 | 2.02e+06 | 0.98
25 | B20 | – | 1.37

Target: T1, CH2-4 constant domains of human IgE …
Test: as above
Remark: another data set of the same source
Protocol: as §1

Row | Binder | Bmax [MFI] | Kd [nM]
26 | B2 | 1.17e+06 | 1.3
27 | B21 | 1.38e+06 | 2.62
28 | B22 | 1.33e+06 | 2.26
29 | B23 | 1.45e+06 | 2.27
30 | B24 | 1.42e+06 | 2.18
31 | B25 | 1.38e+06 | 2.37
